Results as given in PMC2621155.

Target: rapsyn, endogenous in C2C12 myotubes (mouse (endogenous in C2C12)) (UniProt P12672)
Assay: co-IP; C2C12 myotube lysates, anti-rapsyn antibody and protein A agarose beads, blot for α-actinin; myotubes untreated, with agrin 10 ng/ml 18 hr, with agrin and STI-571, or with agrin and then 10 μM carbachol for 4 hr

UniProt P12672, sequence (P12672 whole entry): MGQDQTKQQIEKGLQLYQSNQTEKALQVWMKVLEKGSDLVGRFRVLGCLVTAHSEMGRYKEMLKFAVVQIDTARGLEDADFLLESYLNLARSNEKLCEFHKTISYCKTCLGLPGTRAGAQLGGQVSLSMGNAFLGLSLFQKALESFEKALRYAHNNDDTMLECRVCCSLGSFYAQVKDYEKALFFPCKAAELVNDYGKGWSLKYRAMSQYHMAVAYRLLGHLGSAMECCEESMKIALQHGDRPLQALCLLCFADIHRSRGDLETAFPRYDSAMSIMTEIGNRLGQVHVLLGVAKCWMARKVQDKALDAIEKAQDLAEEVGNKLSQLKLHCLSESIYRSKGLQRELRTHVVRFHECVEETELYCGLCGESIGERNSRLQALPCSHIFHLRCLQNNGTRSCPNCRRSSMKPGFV

α-actinin, endogenous in myotubes (from UniProt Q9JI91 1-894) (natural protein)
fold increase of the co-precipitation in agrin-treated against untreated myotubes: 6 to 10 fold
